Where no end group is shown, it is not given here. The star is where a group is joined. Biotin = O=C1N[C@H]2[C@H](CS[C@H]2CCCCC(=O)*)N1
Columns and labels:
[1] = biological target: tooth pellicle (thin film derived from salivary glycoproteins, formed in a human mouth) (human); assay: phage ELISA on pellicle-coated HAP disks, anti-M13-HRP; no-phage control 0.218
[2] = biological target: tooth pellicle (thin film derived from salivary glycoproteins, formed in a human mouth) (human); assay: ELISA, 20 uM biotinylated peptide on pellicle-coated bovine enamel, streptavidin-HRP, normalized to DenP03; no-peptide control -0.001
[3] = biological target: tooth pellicle (thin film derived from salivary glycoproteins, formed in a human mouth) (human); assay: phage ELISA on pellicle-coated bovine enamel, anti-M13-HRP, normalized to internal control

Row | Binder | O.D.450 [1] | O.D.450 (normalized) [3] | other results
1 | TPCATYPHFSGCRA [Pell 19] | 0.731 |  | 
2 | SSRPVEPATKNMREARSSTQMRRIK(Biotin) [DenP4-A] |  |  | O.D.450 (normalized) [2]: 0.803
3 | NGPDMVQSVGKHKNS [Pell 10] | 0.729 |  | 
4 | IPWWNIRAPLNAGGG [Control (SEQ ID NO: 95)] |  | 1 | 
5 | SSRPTYQGVPSWPAVIDDAIRRK(Biotin) [DenP19-A] |  |  | O.D.450 (normalized) [2]: 0.712
6 | NPTDHIPANSTNSRVSKGNT [Pell 15] | 0.567 |  | 
7 | VEPATKNMREARSSTQMRRI [DenP4] |  | 1.42 | 
8 | KAPIANMLQPHSYQYSVA [DenP18] |  | 1.14 | 
9 | NGPEVRQIPANFEKL [Pell 11] | 0.607 |  | 
10 | SSRPYLLPKDQTTAPQVTPIVQHKK(Biotin) [DenP5-A] |  |  | O.D.450 (normalized) [2]: 0.462
11 | GMPTRYYHNTPPHLTPKF [DenP8] |  | 1.18 | 
12 | TPCAPASFNPHCSR [Pell 18] | 0.416 |  | 
13 | HDPNHLTHQARTIYRNANHT [DenP23] |  | 1.24 | 
14 | QHCITERLHPPCTK [Pell 17] | 0.614 |  | 
15 | WCTDFCTRSTPTSTSRSTTS [Pell 20] | 0.715 |  | 
16 | HKNENIMQYNVNDRWHITPA [DenP32] |  | 1.44 | 
17 | DPNESNYENATTVSQPTRHL [Pell 7] | 0.831 |  | 
18 | DLGTFPNRTLKMAAH [DenP11] |  | 1.66 | 
19 | DLCSMQMMNTGCHY [Pell 5] | 0.83 |  | 
20 | TNDLHANPFTGTYIAPDPTS [DenP30] |  | 1.08 | 
21 | ASVSNYPPIHHLATSNTTVN [Pell 2] | 0.75 |  | 
22 | AHPESLGIKYALDGNSDPHA [Pell 1] | 0.739 |  | 

Row | Binder | O.D.450 [1] | O.D.450 (normalized) [3] | other results
23 | NGNNHTDIPNRSSYTGGSFA [DenP1] |  | 1 | 
24 | SSRPHDPNHLTHQARTIYRNANHTK(Biotin) [DenP23-A] |  |  | O.D.450 (normalized) [2]: 0.85
25 | DECMHGSDVEFCTS [Pell 4] | 0.664 |  | 
26 | FDGIGLGTATRHQNR [DenP12] |  | 2.08 | 
27 | DECMEPLNAAHCWR [Pell 3] | 0.49 |  | 
28 | SSRPELDHDSRHYMNGLQRKVTK(Biotin) [DenP15-A] |  |  | O.D.450 (normalized) [2]: 0.46
29 | VNPNWVETQALHQPPGNT [DenP20] |  | 1.3 | 
30 | SSRPVNPNWVETQALHQPPGNTK(Biotin) [DenP20-A] |  |  | O.D.450 (normalized) [2]: 0.59
31 | SSRPFDGIGLGTATRHQNRK(Biotin) [DenP12-A] |  |  | O.D.450 (normalized) [2]: 0.475
32 | QVPDYLSPTHQKKAFLEIPT [DenP29] |  | 0.976 | 
33 | GNTDTTPPNAVMEPTVQHKW [Pell 9] | 0.755 |  | 
34 | GPQHVLMQDTHQGYAFDN [DenP16] |  | 2.19 | 
35 | TYQGVPSWPAVIDDAIRR [DenP19] |  | 1.05 | 
36 | DHNNRQHAVEVRENKTHTAR [DenP21] |  | 0.728 | 
37 | SSRPIYPNESMSTSNVRGPYHPK(Biotin) [DenP22-A] |  |  | O.D.450 (normalized) [2]: 0.354
38 | SSRPNGNNHTDIPNRSSYTGGSFAK(Biotin) [DenP1-A] |  |  | O.D.450 (normalized) [2]: 0.154
39 | SSRPTTGSSSQADTSASMSIVPAHK(Biotin) [DenP17-A] |  |  | O.D.450 (normalized) [2]: 0.143
40 | DLCSSPSTWGSCIR [Pell 6] | 0.735 |  | 
41 | SNATMYNIQSHSHHQ [DenP24] |  | 0.979 | 
42 | APPTYQTASYPHNLPSKRKM [DenP28] |  | 1.2 | 
43 | TTGSSSQADTSASMSIVPAH [DenP17] |  | 0.971 | 
44 | EPTHPTMRAQMHQSLRSSSP [Pell 8] | 0.712 |  | 

Row | Binder | O.D.450 [1] | O.D.450 (normalized) [3] | other results
45 | IYPNESMSTSNVRGPYHP [DenP22] |  | 1.42 | 
46 | NPTATPHMKDPMHSNAHSSA [Pell 14] | 0.7 |  | 
47 | SSRPEFPYYNDNPPNPERHTLRK(Biotin) [DenP7-A] |  |  | O.D.450 (normalized) [2]: 0.356
48 | SSRPTMTNHVYNSYTEKHSSTHRSK(Biotin) [DenP2-A] |  |  | O.D.450 (normalized) [2]: 0.273
49 | ANELSTYAQTNPGSG [DenP25] |  | 0.909 | 
50 | YLLPKDQTTAPQVTPIVQHK [DenP5] |  | 1.09 | 
51 | NPTDSTHMMHARNHE [Pell 16] | 0.578 |  | 
52 | QAAQVHMMQHSRPTT [DenP13] |  | 0.845 | 
53 | NNTWPEGAGHTMPSTNIRQA [Pell 13] | 0.598 |  | 
54 | NNTSADNPPETDSKHHLSMS [Pell 12] | 0.521 |  | 
55 | TMTNHVYNSYTEKHSSTHRS [DenP2] |  | 1.95 | 
56 | SSRPSEARARTFNDHTTPMPIIK(Biotin) [DenP14-A] |  |  | O.D.450 (normalized) [2]: 0.269
57 | AVVPADLNDHANHLS [DenP10] |  | 1.62 | 
58 | DTIHPNKMKSPSSPL [DenP26] |  | 1.04 | 
59 | ELDHDSRHYMNGLQRKVT [DenP15] |  | 1.11 | 
60 | SSRPQAAQVHMMQHSRPTTK(Biotin) [DenP13-A] |  |  | O.D.450 (normalized) [2]: 0.699
61 | SSRPDLGTFPNRTLKMAAHK(Biotin) [DenP11-A] |  |  | O.D.450 (normalized) [2]: 0.454
62 | SSRPGPQHVLMQDTHQGYAFDNK(Biotin) [DenP16-A] |  |  | O.D.450 (normalized) [2]: 0.309
63 | SEARARTFNDHTTPMPII [DenP14] |  | 2.5 | 
64 | HKNAIQPVNDATTLDTTM [DenP9] |  | 1.36 | 
65 | EFPYYNDNPPNPERHTLR [DenP7] |  | 1.5 | 
